Experiment [1] addresses membrane-bound TNFalpha on stably transfected CHO cells (B-220 cells). The experiment is described as follows: FACS, beads with CHO-TNFα (B220) cells, Sample 2. Background: A flow cytometer gives signals particle by particle.
Experiment [2] shares this target. The experiment is described as follows: FACS, anti-CD19-APC beads with TNFalpha-transfected CHO cells (Fig. 4b).

Substance “APC labeled unrelated antibody (anti-CD 19) (coated on beads)” returned a % bound beads in experiment [1] of 0.9%. Moreover, in experiment [2], the # Events (P4, CHO cells bound to anti-CD19 beads) stood at 6 events; the % Parent (P4, CHO cells bound to anti-CD19 beads) was 0.1%; the % Total (P4, CHO cells bound to anti-CD19 beads) is 0.1%.
